Results published in US20190077860A1 (EISAI R AND D MANAGEMENT, published 2019).

T1: human EphB2 extracellular region-SEAP-His protein (human, UniProt P29323 19-543)
T1 construct: extracellular domain; also called hEphB2-SEAP-His
T1 sequence (looked up): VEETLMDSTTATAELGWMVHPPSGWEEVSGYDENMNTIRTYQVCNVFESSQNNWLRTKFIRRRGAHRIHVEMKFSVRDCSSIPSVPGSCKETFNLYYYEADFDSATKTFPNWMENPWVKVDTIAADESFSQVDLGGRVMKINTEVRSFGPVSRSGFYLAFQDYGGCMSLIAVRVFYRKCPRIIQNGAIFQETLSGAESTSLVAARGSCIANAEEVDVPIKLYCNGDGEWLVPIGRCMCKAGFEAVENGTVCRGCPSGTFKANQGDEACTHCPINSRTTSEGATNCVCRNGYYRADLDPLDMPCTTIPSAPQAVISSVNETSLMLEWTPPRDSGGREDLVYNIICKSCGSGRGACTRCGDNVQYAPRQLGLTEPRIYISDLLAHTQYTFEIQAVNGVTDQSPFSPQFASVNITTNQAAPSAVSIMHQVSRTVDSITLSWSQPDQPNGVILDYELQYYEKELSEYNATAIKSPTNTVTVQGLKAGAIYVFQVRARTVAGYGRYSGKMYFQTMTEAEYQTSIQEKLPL

T2: human EphA3 extracellular region-SEAP-His protein (human, UniProt P29320 21-541)
T2 construct: extracellular domain; also called hEphA3-SEAP-His
T2 sequence (looked up): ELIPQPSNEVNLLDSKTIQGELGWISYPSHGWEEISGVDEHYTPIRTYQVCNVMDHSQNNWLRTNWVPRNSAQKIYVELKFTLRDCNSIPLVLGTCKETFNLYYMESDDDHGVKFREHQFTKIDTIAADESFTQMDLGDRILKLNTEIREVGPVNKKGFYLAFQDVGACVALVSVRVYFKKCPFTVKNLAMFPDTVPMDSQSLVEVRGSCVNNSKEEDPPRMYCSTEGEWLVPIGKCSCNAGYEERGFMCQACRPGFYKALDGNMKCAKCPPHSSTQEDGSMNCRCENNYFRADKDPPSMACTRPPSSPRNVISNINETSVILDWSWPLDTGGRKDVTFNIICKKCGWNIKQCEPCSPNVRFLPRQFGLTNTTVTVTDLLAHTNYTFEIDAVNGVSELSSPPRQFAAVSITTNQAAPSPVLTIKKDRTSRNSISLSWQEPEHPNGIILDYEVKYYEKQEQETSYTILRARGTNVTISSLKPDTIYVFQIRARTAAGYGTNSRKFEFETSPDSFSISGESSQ

T3: human EphA8 extracellular region-SEAP-His protein (human, UniProt P29322 28-542)
T3 construct: extracellular domain; also called hEphA8-SEAP-His
T3 sequence (looked up): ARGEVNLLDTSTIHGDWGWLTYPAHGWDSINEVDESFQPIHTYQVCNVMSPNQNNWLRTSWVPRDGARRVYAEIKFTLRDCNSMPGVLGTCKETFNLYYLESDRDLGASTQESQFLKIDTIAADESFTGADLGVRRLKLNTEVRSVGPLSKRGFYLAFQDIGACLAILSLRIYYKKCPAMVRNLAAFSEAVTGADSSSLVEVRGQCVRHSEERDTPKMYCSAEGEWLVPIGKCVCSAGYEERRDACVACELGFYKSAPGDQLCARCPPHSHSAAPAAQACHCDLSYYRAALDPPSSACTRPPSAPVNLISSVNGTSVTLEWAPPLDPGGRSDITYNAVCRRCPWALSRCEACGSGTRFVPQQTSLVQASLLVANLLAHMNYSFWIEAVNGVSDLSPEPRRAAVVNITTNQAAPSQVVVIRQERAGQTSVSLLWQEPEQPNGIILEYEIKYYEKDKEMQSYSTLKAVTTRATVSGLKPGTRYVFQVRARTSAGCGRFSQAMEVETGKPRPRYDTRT


Columns and labels:
Test in all cases: ELISA
[1] = target: T1, human EphB2 extracellular …
[2] = target: T2, human EphA3 extracellular …
[3] = target: T3, human EphA8 extracellular …

Binder | A450 as % of hEphA4-SEAP-His [1] | A450 as % of hEphA4-SEAP-His [2] | A450 as % of hEphA4-SEAP-His [3]
humanized antibody No. 137 (antibody, human IgG2, human Ig kappa; also called L2-4/HK4) heavy: QIQLVQSGSELKKPGASVKVSCKASGYTFTDYSMHWVRQAPGQGLKWMGWINTETGEPTYADDFKGRFVFSLDTSVSTAYLQISSLKAEDTAVYYCARIPLYYYGSRYWYFDVWGQGTTVTVSSASTKGPSVFPLAPSSRSTSESTAALGCLVKDYFPEPVTVSWNSGALTSGVHTFPAVLQSSGLYSLSSVVTVPSSNFGTQTYTCNVDHKPSNTKVDKTVERKSCVECPPCPAPPAAAPSVFLFPPKPKDTLMISRTPEVTCVVVDVSHEDPEVQFNWYVDGVEVHNAKTKPREEQFNSTFRVVSVLTVVHQDWLNGKEYKCKVSNKGLPAPIEKTISKTKGQPREPQVYTLPPSREEMTKNQVSLTCLVKGFYPSDIAVEWESNGQPENNYKTTPPMLDSDGSFFLYSKLTVDKSRWQQGNVFSCSVMHEALHNHYTQKSLSLSPG light: EIVMTQSPATLSVSPGERATLSCRASENIYRNLAWYQQKPGQSPRLLIYAATNLADGIPARFSGSGSGTEYTLTISSLQSEDFAVYYCQHFWGTPWTFGQGTKVEIKRTVAAPSVFIFPPSDEQLKSGTASVVCLLNNFYPREAKVQWKVDNALQSGNSQESVTEQDSKDSTYSLSSTLTLSKADYEKHKVYACEVTHQGLSSPVTKSFNRGEC | 5.6% | 5.6% | 5.9%
humanized antibody No. 94 (antibody, human IgG1, kappa, human Ig kappa; also called L2-4/HA2) heavy: QVQLVQSGSELKKPGASVKVSCKASGYTFTDYSMHWVRQAPGQGLKWMGWINTETGEPTYAQGFTGRFVFSLDTSVSTAYLQISSLKAEDTAVYYCARIPLYYYGSRYWYFDVWGQGTTVTVSSASTKGPSVFPLAPSSKSTSGGTAALGCLVKDYFPEPVTVSWNSGALTSGVHTFPAVLQSSGLYSLSSVVTVPSSSLGTQTYICNVNHKPSNTKVDKRVEPKSCDKTHTCPPCPAPPAAAPSVFLFPPKPKDTLMISRTPEVTCVVVDVSHEDPEVQFNWYVDGVEVHNAKTKPREEQFNSTFRVVSVLTVVHQDWLNGKEYKCKVSNKGLPAPIEKTISKTKGQPREPQVYTLPPSREEMTKNQVSLTCLVKGFYPSDIAVEWESNGQPENNYKTTPPMLDSDGSFFLYSKLTVDKSRWQQGNVFSCSVMHEALHNHYTQKSLSLSPG light: EIVMTQSPATLSVSPGERATLSCRASENIYRNLAWYQQKPGQSPRLLIYAATNLADGIPARFSGSGSGTEYTLTISSLQSEDFAVYYCQHFWGTPWTFGQGTKVEIKRTVAAPSVFIFPPSDEQLKSGTASVVCLLNNFYPREAKVQWKVDNALQSGNSQESVTEQDSKDSTYSLSSTLTLSKADYEKHKVYACEVTHQGLSSPVTKSFNRGEC | 7% | 6.8% | 7%
humanized antibody No. 71 (antibody, human IgG1, kappa, human Ig kappa; also called L2-4/HA4) heavy: QIQLVQSGSELKKPGASVKVSCKASGYTFTDYSMHWVRQAPGQGLKWMGWINTETGEPTYAQGFTGRFVFSLDTSVSTAYLQISSLKAEDTAVYYCARIPLYYYGSRYWYFDVWGQGTTVTVSSASTKGPSVFPLAPSSKSTSGGTAALGCLVKDYFPEPVTVSWNSGALTSGVHTFPAVLQSSGLYSLSSVVTVPSSSLGTQTYICNVNHKPSNTKVDKRVEPKSCDKTHTCPPCPAPPAAAPSVFLFPPKPKDTLMISRTPEVTCVVVDVSHEDPEVQFNWYVDGVEVHNAKTKPREEQFNSTFRVVSVLTVVHQDWLNGKEYKCKVSNKGLPAPIEKTISKTKGQPREPQVYTLPPSREEMTKNQVSLTCLVKGFYPSDIAVEWESNGQPENNYKTTPPMLDSDGSFFLYSKLTVDKSRWQQGNVFSCSVMHEALHNHYTQKSLSLSPG light: EIVMTQSPATLSVSPGERATLSCRASENIYRNLAWYQQKPGQSPRLLIYAATNLADGIPARFSGSGSGTEYTLTISSLQSEDFAVYYCQHFWGTPWTFGQGTKVEIKRTVAAPSVFIFPPSDEQLKSGTASVVCLLNNFYPREAKVQWKVDNALQSGNSQESVTEQDSKDSTYSLSSTLTLSKADYEKHKVYACEVTHQGLSSPVTKSFNRGEC | 5.5% | 5.6% | 5.3%
